Patent WO2005095457A2 (dated 2005)
One block for each binder: values may come before it.

Assays:
[1] = target: T1, cynomolgus monkey OSM (cOSM) (cynomolgus monkey, UniProt P13725 26-221 (human entry), limits assumed); experiment: gp130 inhibition ELISA, purified antibodies
T1 construct: also called cynomolgus OSM
T1 chain: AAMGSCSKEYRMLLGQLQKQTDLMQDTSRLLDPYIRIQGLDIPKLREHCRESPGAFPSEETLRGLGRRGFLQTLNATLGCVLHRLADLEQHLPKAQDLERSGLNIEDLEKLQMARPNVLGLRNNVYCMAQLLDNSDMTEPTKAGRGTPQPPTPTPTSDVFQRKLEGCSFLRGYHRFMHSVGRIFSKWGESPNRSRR

[2] = target: T2, human Oncostatin M (hOSM) (human, UniProt P13725 26-221); experiment: gp130 ELISA, hOSM
T2 construct: also called human OSM
T2 sequence: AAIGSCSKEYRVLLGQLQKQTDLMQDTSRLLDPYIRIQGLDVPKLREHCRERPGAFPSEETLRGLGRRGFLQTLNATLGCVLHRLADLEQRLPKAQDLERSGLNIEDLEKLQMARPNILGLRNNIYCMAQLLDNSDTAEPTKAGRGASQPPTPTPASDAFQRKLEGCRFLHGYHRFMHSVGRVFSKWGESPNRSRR

[3] = target: T3, glycosylated human OSM (hOSM) produced in CHO cells (human) (UniProt P13725); experiment: competition ELISA: murine 10D3 titrated against 15E10-B3L2 (150 ng/ml, the competitor) on soluble glycosylated hOSM (50 ng/ml), capture by OM4-11.31, anti-human gamma chain detection
T3 sequence (chain, glycosylated (CHO cell glycosylated)): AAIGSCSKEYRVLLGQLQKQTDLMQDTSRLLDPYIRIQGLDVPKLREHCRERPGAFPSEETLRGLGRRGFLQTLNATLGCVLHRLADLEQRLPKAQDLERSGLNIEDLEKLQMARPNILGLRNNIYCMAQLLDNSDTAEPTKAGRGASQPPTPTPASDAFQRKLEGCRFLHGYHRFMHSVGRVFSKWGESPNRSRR

[4] = target: T1, cynomolgus monkey OSM (cOSM); experiment: gp130 inhibition ELISA and KB cell assay
[5] = target: T1, cynomolgus monkey OSM (cOSM); experiment: gp130 inhibition ELISA, cynomolgus OSM

B1: humanised 15E10 antibody B3L2 (antibody, human IgG1, kappa, V domains shown)
VH: QVQLVESGGGVVQPGRSLRLSCAASGFSLTNYGVHWVRQAPGKGLEWVAVIWRGGSTDYNAAFMSRFTISKDNSKNTLYLQMNSLRAEDTAVYYCAKSPNSNFYWYFDVWGRGTLVTVSS
VL: EIVLTQSPATLSLSPGERATLSCSGSSSVSYMYWYQQKPGQAPRLLIEDTSNLASGIPARFSGSGSGTDYTLTISNLEPEDFAVYYCQQWSSYPPTFGQGTKLEIKR
notes: Human IgG1 wild type / kappa; purified from CHO; also called B3L2 wt; 15E10-B3L2
binding result [1]: binds

B2: 10D3 chimaeric antibody (antibody, human IgG1, V domains shown)
VH: EVQLQQSGPELVKPGASVKISCKASGYIFTDYNMDWVKQSHGKKLEWIGDINPNNGGTIDNQKFKDKATLTVDKSSSTAYMELRSLTSEDTAVYYCARGIYYYGSHYFDYWGQGTTLTVSS
VL: QIVLTQSPAIMSASPGEKVTMTCSATSSVSVMHWFQKKSGTSPKRWIYDTSKLASGVPTRFSGSGSGTSYSLTISSMEAEDTATYYCQQWSSNPLTFGSGTKLELK
notes: expressed in CHO; also called chimaeric 10D3; chimeric 10D3
IC50 [2]: 0.032 µg/mL
% inhibition of 15E10 at equimolarity (0.15μg/ml) [3]: 62.3%

The next lines start with the values.

binding result [4]: binds
B3: 15E10 chimaeric antibody (antibody, human IgG1, V domains shown)
VH: QVQLKQSGPGLVQPSQSLSITCTVSGFSLTNYGVHWVRQSPGKGLEWLGVIWRGGSTDYNAAFMSRLSITKDNSRSQVFFKMNSLQADDTAIYYCAKSPNSNFYWYFDVWGTGTTVTVSS
VL: QIVLTQSPTIMSASPGEKVTMTCSGSSSVSYMYWYQEKPGSSPRLLIEDTSNLASGVPARFSGSGSGTSYSLTISRMEAEDAATYYCQQWSSYPPTFGSGTKLEIK
notes: expressed in CHO; also called chimaeric 15E10; 15E10 chimaera

binding result [5]: binds
B4: 15E10 murine antibody (antibody, mouse IgG2a, V domains shown)
VH: QVQLKQSGPGLVQPSQSLSITCTVSGFSLTNYGVHWVRQSPGKGLEWLGVIWRGGSTDYNAAFMSRLSITKDNSRSQVFFKMNSLQADDTAIYYCAKSPNSNFYWYFDVWGTGTTVTVSS
VL: QIVLTQSPTIMSASPGEKVTMTCSGSSSVSYMYWYQEKPGSSPRLLIEDTSNLASGVPARFSGSGSGTSYSLTISRMEAEDAATYYCQQWSSYPPTFGSGTKLEIK
notes: also called clone 15E10; parent murine 15E10
